# “And” between values parts separate entries of the source, which are not always exact repeats. Identical values can stand only once. Like-named read-outs stand apart in the source and are kept apart here.
# How the values were obtained:
# [1] = test system: patients with hypercholesterolemia at moderate cardiovascular (CV) risk; conditions: in vivo
# Description: (§1) The clinical laboratory data consisted of urinalysis and blood analysis, hematology (RBC count, red blood cell distribution width (RDW), reticulocyte count, hemoglobin, hematocrit, platelets, WBC count with differential blood count), standard chemistry (glucose, sodium, potassium, chloride, bicarbonate, calcium, phosphorous, urea nitrogen, creatinine, uric acid, total protein, LDH, albumin, γ Glutamyl Transferase [γGT]), Hepatitis C antibody, liver panel (ALT, AST, ALP, and total bilirubin), and CPK.
# (§2) Safety endpoints—Vital signs measurement: Vital signs included: HR, systolic and diastolic BP in sitting position.
# (§3) The safety analysis included all randomized and treated patients. Safety data were analyzed by descriptive statistics.
# [2] = test system: patients with primary hypercholesterolemia (heFH and non-FH) who are intolerant to statins; conditions: in vivo
# [3] = test system: patients with hypercholesterolemia at moderate cardiovascular (CV) risk; test: Example 2: safety (TEAEs, laboratory parameters, vital signs); conditions: for Patients with any TEAE / Patients with any TEAE leading to death / Patients with any TEAE leading to treatment discontinuation / Patients with any treatment emergent SAE: Safety Population; for General disorders and administration site conditions / Injection site reaction / Muscle disorders / Musculoskeletal and connective tissue disorders / Musculoskeletal and connective tissue disorders NEC / Musculoskeletal pain / Myalgia / muscle spasms: TEAEs of interest; for Muscle-related AEs: discussion; for injection related AEs: disposable autoinjector
# Description: as §1, §2, §3
# [4] = Week 12, individual patient 6 who reported high blood glucose
# [5] = Week 24, individual patients (arbitrary numbers 1-5) who reported high blood glucose
molecule,measurement,setting,value
"O=C1[C@H](CC[C@H](O)c2ccc(F)cc2)[C@@H](c2ccc(O)cc2)N1c1ccc(F)cc1 [ezetimibe, reference compound]",Influenza,[1]; human,3 (5.9) n (%)
same,Cardiac disorders (SOC),[2]; human,6 (4.8%) patients (%)
same,Ear and labyrinth disorders (SOC),[2]; human,4 (3.2%) patients (%)
same,General allergic TEAEs (MedDRA SMQ Hypersensitivity),[2]; human,9 (7.3%) patients (%)
same,Investigations (SOC),[2]; human,7 (5.6%) patients (%)
same,Psychiatric disorders (SOC),[2]; human,5 (4.0%) patients (%)
same,Skeletal muscle-related TEAEs (CMQ preferred term),[2]; human,40 (32.3%) patients (%)
same,TEAEs,[2]; human,100 (80.6%) patients (%)
same,Treatment-emergent SAEs,[2]; human,10 (8.1%) patients (%)
same,Treatment-emergent injection site reactions (ISRs),[2]; human,6 (4.8%) patients (%)
same,Treatment-emergent neurocognitive disorders,[2]; human,2 (1.6%) patients (%)
same,Treatment-emergent neurologic AEs,[2]; human,4 (3.2%) patients (%)
same,Treatment-emergent skeletal muscle-related events resulting in early treatment discontinuation,[2]; human,23 (18.5%) patients (%)
same,back pain,[2]; human,5.6%
same,early termination due to musculoskeletal and connective tissues disorders SOC events,[2]; human,26 [21.0%] patients [%]
same,fatigue,[2]; human,3.2%
same,headache,[2]; human,4.8%
same,insomnia,[2]; human,2 (1.6%) reports (%)
same,muscle spasms,[2]; human,7.3%
same,muscular weakness,[2]; human,1.6%
same,non-cardiac chest pain (treatment-emergent SAE preferred term),[2]; human,4 (3.2%) patients (%)
same,palpitations,[2]; human,2 (1.6%) reports (%)
same,paraesthesia,[2]; human,0%
same,patients who prematurely discontinued study treatment due to a TEAE,[2]; human,31 (25.0%) patients (%)
same,patients who prematurely terminated study treatment due to adverse events,[2]; human,31 (24.8%) patients (%)
same,rate of AEs,[2]; human,81%
same,vertigo,[2]; human,2 (1.6%) reports (%)
same,Alanine aminotransferase (ALT) ≧3× ULN,[3]; Laboratory parameters,0/51
same,Alanine aminotransferase (ALT) ≧3× ULN (if baseline ALT <ULN) or ≧2× the baseline value (if baseline ALT ≧ULN),[3]; Laboratory parameters,0/51
same,Albumin ≦25 g/L,[3]; Laboratory parameters,0/50
same,Aspartate aminotransferase >3× ULN,[3]; Laboratory parameters,0/51
same,Glucose ≦70 mg/dL (3.9 mmol/L) and <LLN,[3]; Laboratory parameters,0/50
same,Patients with any TEAE,[3],40 (78.4) n (%)
same,Patients with any TEAE leading to death,[3],0 n (%)
same,Patients with any TEAE leading to treatment discontinuation,[3],4 (7.8) n (%)
same,Patients with any treatment emergent SAE,[3],1 (2.0) n (%)
same,Arthralgia,[3]; TEAE,2 (3.9) n (%)
same,Diarrhea,[3]; TEAE,2 (3.9) n (%)
same,Dizziness,[3]; TEAE,3 (5.9) n (%)
same,Headaches,[3]; TEAE,2 (3.9) n (%)
same,Nasopharyngitis,[3]; TEAE,8 (15.7) n (%)
same,Nausea,[3]; TEAE,3 (5.9) n (%)
same,Upper respiratory tract infection,[3]; TEAE,5 (9.8) n (%)
same,Urinary tract infection,[3]; TEAE,3 (5.9) n (%)
same,back pain,[3]; TEAE,3 (5.9) n (%)
same,General disorders and administration site conditions,[3],5 (9.8) n (%)
same,Injection site reaction,[3],2 (3.9) n (%)
same,Muscle disorders,[3],2 (3.9) n (%)
same,Musculoskeletal and connective tissue disorders,[3],11 (21.6) n (%)
same,Musculoskeletal and connective tissue disorders NEC,[3],5 (9.8) n (%)
same,Musculoskeletal pain,[3],1 (2.0) n (%)
same,Myalgia,[3],1 (2.0) n (%)
same,muscle spasms,[3],1 (2.0) n (%)
same,Muscle-related AEs,[3],4%
same,injection related AEs,[3],< 4%
same,Muscle-related TEAEs,[3]; in vivo,2 (4%) patients (%)
same,overall percentage of patients who experienced at least one TEAE,[3]; in vivo,78%
same,"patients with abnormalities in vital signs (blood pressure, heart rate)",[3]; in vivo,≤ 2 patients
same,patients with blood glucose >126 mg/dL (7 mmol/L),[3]; in vivo,1 patients
same,patients with elevated creatine kinase levels over 10 times the upper limit of normal,[3]; in vivo,1 patient
same,TEAE class infection,[3]; mostly respiratory,39.2%
"mAb316P: human anti-PCSK9 antibody; heavy chain SEQ ID NO:5, light chain SEQ ID NO:9; HCVR SEQ ID NO:1, LCVR SEQ ID NO:6",TEAE class infection,[1],42.3%
same,Cardiac disorders (SOC),[2],10 (7.9%) patients (%)
same,Ear and labyrinth disorders (SOC),[2],8 (6.3%) patients (%)
same,General allergic TEAEs (MedDRA SMQ Hypersensitivity),[2],12 (9.5%) patients (%)
same,Investigations (SOC),[2],9 (7.1%) patients (%)
same,Psychiatric disorders (SOC),[2],9 (7.1%) patients (%)
same,Skeletal muscle-related TEAEs (CMQ preferred term),[2],34 (27.0%) patients (%)
same,TEAEs,[2],104 (82.5%) patients (%)
same,Treatment-emergent SAEs,[2],12 (9.5%) patients (%)
same,Treatment-emergent injection site reactions (ISRs),[2],6 (4.8%) patients (%)
same,Treatment-emergent neurocognitive disorders,[2],3 (2.4%) patients (%)
same,Treatment-emergent neurologic AEs,[2],11 (8.7%) patients (%)
same,Treatment-emergent skeletal muscle-related events resulting in early treatment discontinuation,[2],19 (15.1%) patients (%)
same,back pain,[2],4.0%
same,early termination due to musculoskeletal and connective tissues disorders SOC events,[2],20 [15.9%] patients [%]
same,fatigue,[2],4.8%
same,headache,[2],4.8%
same,insomnia,[2],5 (4.0%) reports (%)
same,muscle spasms,[2],4.0%
same,muscular weakness,[2],0.8%
same,palpitations,[2],4 (3.2%) reports (%)
same,paraesthesia,[2],3.2%
same,patients who prematurely discontinued study treatment due to a TEAE,[2],23 (18.3%) patients (%)
same,patients who prematurely terminated study treatment due to adverse events,[2],23 (18.3%) patients (%)
same,rate of AEs,[2],82.5%
same,vertigo,[2],6 (4.8%) reports (%)
same,safety and tolerability,[2]; sc,generally safe and well tolerated
same,Albumin ≦25 g/L,[3]; Laboratory parameters,0/51
same,Aspartate aminotransferase >3× ULN,[3]; Laboratory parameters,0/52
same,Creatine kinase >3× ULN,[3]; Laboratory parameters,0/51
same,Creatine kinase >10× ULN,[3]; Laboratory parameters,0/51
same,Glucose ≦70 mg/dL (3.9 mmol/L) and <LLN,[3]; Laboratory parameters,0/52
same,Patients with any TEAE,[3],36 (69.2) n (%)
same,Patients with any TEAE leading to death,[3],0 n (%)
same,Patients with any TEAE leading to treatment discontinuation,[3],5 (9.6) n (%)
same,Patients with any treatment emergent SAE,[3],1 (1.9) n (%)
same,Arthralgia,[3]; TEAE,3 (5.8) n (%)
same,Diarrhea,[3]; TEAE,6 (11.5) n (%)
same,Dizziness,[3]; TEAE,1 (1.9) n (%)
same,Headaches,[3]; TEAE,3 (5.8) n (%)
same,Influenza,[3]; TEAE,6 (11.5) n (%)
same,Nasopharyngitis,[3]; TEAE,12 (23.1) n (%)
same,Nausea,[3]; TEAE,3 (5.8) n (%)
same,Upper respiratory tract infection,[3]; TEAE,2 (3.8) n (%)
same,Urinary tract infection,[3]; TEAE,0 n (%)
same,back pain,[3]; TEAE,1 (1.9) n (%)
same,General disorders and administration site conditions,[3],5 (9.6) n (%)
same,Injection site reaction,[3],1 (1.9) n (%)
same,Muscle disorders,[3],2 (3.8) n (%)
same,Musculoskeletal and connective tissue disorders,[3],8 (15.4) n (%)
same,Musculoskeletal and connective tissue disorders NEC,[3],2 (3.8) n (%)
same,Musculoskeletal pain,[3],1 (1.9) n (%)
same,Myalgia,[3],2 (3.8) n (%)
same,muscle spasms,[3],0 n (%)
same,Fasting blood glucose,[3]; [4],135 mg/dL
same,HbA1c,[3]; [4],6.3%
same,Fasting blood glucose,[3]; [5],121 mg/dL and 112 mg/dL (2×) and 70 mg/dL and 183 mg/dL
same,HbA1c,[3]; [5],6.5% and 5.9% (2×) and 6.2% and 7.7%
same,Muscle-related AEs,[3],4%
same,injection related AEs,[3],< 2%
same,Muscle-related TEAEs,[3]; in vivo,2 (4%) patients (%)
same,overall percentage of patients who experienced at least one TEAE,[3]; in vivo,69%
same,"patients with abnormalities in vital signs (blood pressure, heart rate)",[3]; in vivo,no patients
same,patients with blood glucose >126 mg/dL (7 mmol/L),[3]; in vivo,6 patients
same,patients who experienced at least 1 LDL-C value<25 mg/dL,[3]; mAb316P 75 mg Q2W,Three
same,tolerability and safety,[3]; overall conclusion,tolerability and safety comparable with ezetimibe

# — patent publication US20150140002A1, “USE OF A PCSK9 INHIBITOR TO TREAT […]” (Sanofi, priority 2013, published 2015)
